{"source": "patent US20170035878A1", "about": "(ALBANY MEDICAL COLLEGE, published 2017)", "binders": {"B1": {"name": "trivalent anti-hFcγRI-PspA fusion protein (other)", "chain": "DIQLTQSPSSLSASVGDRVTITCKSSQSVLYSSNQKNYLAWYQQKPGKAPKLLIYWASTRESGVPSRFSGSGSGTDFTFTISSLQPEDIATYYCHQYLSSWTFGQGTKVEIKSSGGGGSGGGGSGGGGSEVQLVESGGGVVQPGRSLRLSCSSSGFIFSDNYMYWVRQAPGKGLEWVATISDGGSYTYYPDSVKGRFTISRDNSKNTLFLQMDSLRPEDTGVYFCARGYYRYEGAMDYWGQGTPVTVSSGSTGGGGSTSAGGGGSSDIQLTQSPSSLSASVGDRVTITCKSSQSVLYSSNQKNYLAWYQQKPGKAPKLLIYWASTRESGVPSRFSGSGSGTDFTFTISSLQPEDIATYYCHQYLSSWTFGQGTKVEIKSSGGGGSGGGGSGGGGSEVQLVESGGGVVQPGRSLRLSCSSSGFIFSDNYMYWVRQAPGKGLEWVATISDGGSYTYYPDSVKGRFTISRDNSKNTLFLQMDSLRPEDTGVYFCARGYYRYEGAMDYWGQGTPVTVSSGSTGGGGSTASGGGGSSDIQLTQSPSSLSASVGDRVTITCKSSQSVLYSSNQKNYLAWYQQKPGKAPKLLIYWASTRESGVPSRFSGSGSGTDFTFTISSLQPEDIATYYCHQYLSSWTFGQGTKVEIKSSGGGGSGGGGSGGGGSEVQLVESGGGVVQPGRSLRLSCSSSGFIFSDNYMYWVRQAPGKGLEWVATISDGGSYTYYPDSVKGRFTISRDNSKNTLFLQMDSLRPEDTGVYFCARGYYRYEGAMDYWGQGTPVTVSSGSTGGGGSTEFMEESPVASQSKAEKDYDAAKKDAKNAKKAVEDAQKALDDAKAAQKKYDEDQKKTEEKAALEKAASEEMDKAVAAVQQAYLAYQQATDKAAKDAADKMIDEAKKREEEAKTKFNTVRAMVVPEPEQLAETKKKSEEAKQKAPELTKKLEEAKAKLEEAEKKATEAKQKVDAEEVAPQAKIAELENQVHRLEQELKEIDESESEDYAKEGFRAPLQSKLDAKKAKLSKLEELSDKIDELDAEIAKLEDQLKAAEENNNVEDYFKEGLEKTIAAKKAELEKTEADLKKAVNEPEKPAPAPETPAPELEHHHHHH", "notes": "Single-chain fusion: three humanized 22 (H22) anti-human FcγRI VL-VH scFv units, then PspA (S. pneumoniae strain Rx1) and a His tag; Tested as unpurified supernatant of transfected NSO cells; also called Trivalent Anti-FcγRI-PspA; Construct B"}}, "key": {"[1]": {"target": "T1, human FcγRI on hFcγRI-expressing U937 cells (human, UniProt P12314 16-374)", "T1 construct": "whole, on cells; also called hFcγRI on U937 cells", "T1 sequence (P12314 16-374)": "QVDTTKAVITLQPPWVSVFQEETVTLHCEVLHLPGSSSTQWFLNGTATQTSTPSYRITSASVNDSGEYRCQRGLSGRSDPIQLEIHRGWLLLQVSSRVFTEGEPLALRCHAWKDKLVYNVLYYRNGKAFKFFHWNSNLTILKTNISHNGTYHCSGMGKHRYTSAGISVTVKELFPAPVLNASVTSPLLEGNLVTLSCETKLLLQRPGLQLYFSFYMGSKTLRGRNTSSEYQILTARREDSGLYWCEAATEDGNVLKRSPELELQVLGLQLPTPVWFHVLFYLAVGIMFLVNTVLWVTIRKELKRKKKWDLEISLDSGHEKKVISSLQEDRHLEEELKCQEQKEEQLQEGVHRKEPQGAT", "assay": "flow cytometry on U937 cells, NSO supernatant, in the presence of human IgG, Rb anti-PspA or Rb anti-HSA detection"}, "[2]": {"target": "T2, human FcγRI (hFcγRI), coated on ELISA wells (human, UniProt P12314 16-288)", "T2 construct": "also called CD64", "T2 sequence (P12314 16-288 limits assumed)": "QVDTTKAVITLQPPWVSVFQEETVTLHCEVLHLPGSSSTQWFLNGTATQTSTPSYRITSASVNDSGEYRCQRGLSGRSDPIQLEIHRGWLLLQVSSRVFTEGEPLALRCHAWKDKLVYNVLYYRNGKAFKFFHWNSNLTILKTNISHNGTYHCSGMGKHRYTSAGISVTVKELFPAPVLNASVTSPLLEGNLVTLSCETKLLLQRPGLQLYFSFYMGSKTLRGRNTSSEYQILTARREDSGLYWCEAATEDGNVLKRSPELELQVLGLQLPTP", "assay": "ELISA, hFcγRI-coated wells, NSO supernatant, Rb anti-PspA or Rb anti-HSA detection"}}, "data": [{"binder": "B1", "values": [{"measurement": "binding result", "setting": "[1]", "result": "binds"}, {"measurement": "binding result", "setting": "[2]", "result": "binds"}]}]}
